Tests used:
HCVcc-luc [1] = test: Attachment versus post-attachment inhibition assay; assay type: cell-based, Hepatitis C virus; conditions: heparin 200 μg/ml, anti-CD81 5 μg/ml, hEP 20 μg/ml, bafilomycin A1 10 nM
Protocol: (§1) FIGS. 5A-5D. hEP inhibits HCV entry at the attachment step. (A) HCVcc-luc was first mixed with either scrambled peptide or hEP-2 (20 μg/ml) for one hour at room temperature. In Group 1, mixed virus was directly added to Huh7.5.1 cells, whereas in Group 2, virus was purified through ultracentrifuge at 28,000×g for 4 hours in order to remove peptide, and then used to infect Huh7.5.1 cells. **p<0.005. (B) The kinetics of hEP- and bafilomycin A1-mediated inhibition were determined by time-of-addition assays, as described in the examples section. Fitted lines represent sigmoidal time-dependent curves (mean of n=3; error bars, s.d.). (C) HCVcc-Luc was added to Huh7.5.1 cells at 4° C. and incubated for 1.5 hrs. Unbound virus was removed by 2 washes with cold media, fresh media was added, and the cells were shifted to 37° C. to allow synchronous infection to proceed. Heparin (200 μg/ml), anti-CD81 monoclonal antibody (5 μg/ml), hEP (20 μg/ml), or bafilomycin A1 (10 nM) were present in the media either continuously, during the 4° C. incubation only (attachment), or during the 37° C. incubation phase only (post-attachment). % Inhibition was calculated as 100-percent infection relative to control infections containing DMSO or an isotype antibody control containing 0.01% sodium azide (for anti-CD81 only) (mean of n=3; error bars, s.d.). (D) The effects of hEP (2.7 μM) or scrambled peptide on HCV binding were determined as described in the examples section. Results were calculated as relative RNA copies with numbers obtained from the scrambled peptide treated wells set to 100 (mean of n=3; error bars, s.d.). **p<0.005.
To investigate the mechanistic action of hEP, three sets of experiments were conducted. First, hEP-2 (SEQ ID NO: 9) or scrambled peptide-treated HCVcc were purified through ultracentrifugation to remove the peptide and then used to infect naïve Huh7.5.1 cells. […] Second, to determine the kinetics of inhibition, a time-of-addition experiment was conducted. HCV remained sensitive to bafilomycin A1, a fusion inhibitor that prevents endosome acidification, until 3 hours after the 37° C. temperature shift (FIG. 5B), which is consistent with previous reports (Koutsoudakis et al., J Virol 2006; 80:5308-5320). […] In order to determine whether hEP-2 (SEQ ID NO: 9) blocks infection at the initial attachment step or a downstream event in the HCV entry process, hEP-2 (SEQ ID NO: 9) was either added together with HCVcc to cells during the 4° C. attachment step only, and then removed prior to shifting the temperature to 37° C., or added only after the temperature shift. As a positive control, hEP-1 was present during the entire course of the experiment. […] Finally, the direct binding of virions to cell surface was measured using a real-time PCR based assay.

JFH1 HCVcc = test: HCVcc binding assay (real-time PCR of vRNA, Huh7.5.1 cells); assay type: cell-based, Hepatitis C virus; conditions: 2.7 μM, 2 hours at 4° C., relative to scrambled peptide
Protocol: as §1, with “bars, s.d.). […] Heparin (200” for “bars, s.d.). (C) HCVcc-Luc was added to Huh7.5.1 cells at 4° C. and incubated for 1.5 hrs. Unbound virus was removed by 2 washes with cold media, fresh media was added, and the cells were shifted to 37° C. to allow synchronous infection to proceed. Heparin (200”, “s.d.). **p<0.005. […]” for “s.d.). **p<0.005.”

DENY (Thailand 16681) = test: Dengue virus infection of Huh7.5.1 cells (TCID50); assay type: cell-based
LDLR = test: Surface LDLR level on Huh7.5.1 cells by flow cytometry; assay type: cell-based; conditions: various time periods
Protocol: (§2) FIGS. 4A-4C. (A) Huh7.5.1 cells seeded in a 12-well plate were treated with hEP-2 (20 μg/ml) for indicated time periods. Cells were stained with a mouse IgG (istotype control) or the anti-LDLR antibody followed by flow cytometric analysis. An overlay of 7 histograms is presented and the Δ median fluorescence intensity (ΔMFI, LDLR stain minus isotype control stain) of each sample is indicated to the upper right of the figure. (B) Cells were stained with anti-CD81 antibody and analyzed similarly as in A. (C) Immunonblots of SR-BI, CLDN1, and OCLN in the presence of hEP-2 or scrambled peptide.

HCVcc-luc [2] = test: Time-of-addition assay; assay type: cell-based, Hepatitis C virus; conditions: 20 μg/ml (2.7 μM)
Protocol: as §1, with “bars, s.d.). […] Heparin (200” for “bars, s.d.). (C) HCVcc-Luc was added to Huh7.5.1 cells at 4° C. and incubated for 1.5 hrs. Unbound virus was removed by 2 washes with cold media, fresh media was added, and the cells were shifted to 37° C. to allow synchronous infection to proceed. Heparin (200”, “s.d.). **p<0.005. […]” for “s.d.). **p<0.005.”

SR-BI = test: Immunoblot of SR-BI; assay type: cell-based
Protocol: as §2

OCLN = test: Immunoblot of OCLN; assay type: cell-based
Protocol: as §2

CD81 = CD81 level on Huh7.5.1 cells by flow cytometry; assay type: cell-based
Protocol: as §2

CLDN1 = test: Immunoblot of CLDN1; assay type: cell-based
Protocol: as §2

HCVpp = HCVpp infection of Huh7.5.1 cells; assay type: cell-based, Hepatitis C virus (H77, JFH1, J6 envelope)

## EELRVRLASHLRKLRKRLLRDADDLQKRLAVYEEQAQQIRLQAEAFQARLKSWFEPLVEDM [hEP-1]
HCVcc-luc [1]
  Inhibition when present after the temperature shift only (post-attachment): very little inhibition
  Inhibition when present during the 4° C. attachment step only: strongly inhibited
JFH1 HCVcc
  Amount of viral RNA (vRNA) bound to cells: decreased significantly

B1: hEP: human apoE dual-domain peptide: helix 4 of N-terminal domain plus major lipid-binding region; expressed in bacteria (protein)
peptide: EELRVRLASHLRKLRKRLLRDADDLQKRLAVYEEQAQQIRLQAEAFQARLKSWFEPLVEDM
DENY (Thailand 16681)
  Effect on infectivity of DENY: did not affect the infectivity
LDLR
  Change of surface LDLR: did not cause detectable change
HCVcc-luc [2]
  Activity when added after the temperature shift (time of addition): disappeared almost completely
SR-BI
  Effect on level of SR-BI: did not affect
OCLN
  Effect on level of OCLN: did not affect
CD81
  Effect on level of CD81: did not affect
CLDN1
  Effect on level of CLDN1: did not affect
HCVpp
  Effect on infectivity of HCVpp: did not affect the infectivity

Source: patent publication US10125184B2, “Apolipoprotein E polypeptides and their use” (priority 2011, dated 2018)
